In patent publication US20210403579A1 (DELINIA, published 2021):

Target: T1, Human ST2 (human, UniProt Q01638 19-328, limits assumed)
T1 construct: also called human ST2 protein; Interleukin 1 receptor-like 1
T1 sequence (looked up): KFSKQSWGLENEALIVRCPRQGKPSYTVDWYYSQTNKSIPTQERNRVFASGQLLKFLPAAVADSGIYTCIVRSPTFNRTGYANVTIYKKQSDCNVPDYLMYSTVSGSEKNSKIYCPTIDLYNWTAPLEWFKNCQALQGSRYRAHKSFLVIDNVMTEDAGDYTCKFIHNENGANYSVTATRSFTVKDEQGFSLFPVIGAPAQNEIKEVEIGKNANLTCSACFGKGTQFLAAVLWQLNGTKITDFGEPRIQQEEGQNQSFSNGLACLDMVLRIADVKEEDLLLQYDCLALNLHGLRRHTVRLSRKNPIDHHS
Test: SPR (Carterra), antibody immobilized, ST2 analyte
Protocol: Binding of the reformatted human ST2 antibodies to the human and mouse ST2 proteins was evaluated by surface plasmon resonance (SPR), using a high throughput antibody screening and characterization platform from Carterra (Salt Lake City, Utah).

| Binder | Kd [nM] | koff [s⁻¹] | kon [M⁻¹ s⁻¹] |
| --- | --- | --- | --- |
| Human ST2 IgG1 Antibody 46 (antibody, V domains shown, IgG1; also called ST2 Antibody 46) VH: EVQLLESGGGLVKPGGSLRLSCAASGFTFSSYWMSWVRQAPGKGLEWVSSISGTSNYMYYADSVKGRFTISRDDSKNTLYLQMNSLKTEDTAVYYCARDRGFLGYFDYWGQGTLVTVSS VL: DIQMTQSPSSLSASVGDRVTITCQASQYISNYLNWYQQKPGKAPKLLIYGASTLQSGVPSRFSGSGSGTDFTLTISSLQPEDFATYYCQQSQSTPLTFGPGTKVDIKR | 339 | 0.042 | 120000 |
| Human ST2 IgG1 Antibody 42 (antibody, V domains shown, IgG1; also called ST2 Antibody 42) VH: QVQLVQSGAEVKKPGASVKVSCKASGYTFNSHWVHWVRQAPGQGLEWMGWISAYNGNTNYAQKLQGRVTMTRDTSTSTVYMELSSLRSEDTAVYYCASGDYPYYYYGMDVWGQGTTVTVSS VL: DIQMTQSPSSLSASVGDRVTITCRASQGVANWLAWYQQKPGKAPKLLIYSASNLQSGVPSRFSGSGSGTDFTLTISSLQPEDFATYYCQQSSSFPLTFGQSTRLEIKR | 278 | 0.088 | 320000 |
| Human ST2 IgG1 Antibody 39 (antibody, V domains shown, IgG1; also called ST2 Antibody 39) VH: QVQLVQSGAEVKKPGSSVKVSCKASGYTFTSYYMQWVRQAPGQGLEWMGGIIPIFGTANYAQKFQGRVTITADESTSTAYMELSSLRSEDTAVYYCARARFGAVDYWGQGTLVTVSS VL: not shown | 57 | 0.022 | 390000 |
| Human ST2 IgG1 Antibody 52 (antibody, V domains shown, IgG1; also called ST2 Antibody 52) VH: QVQLVQSGAEVKKPGSSVKVSCKASGGTFSNYAISWVRQAPGQGLEWMGWISAYNGNTNYAQKFQGRVTITADESTSTAYMELSSLRSEDTAVYYCARLSTVTTRPYYYYGMDVWGQGTTVTVSS VL: DIVMTQSPLSLPVTPGEPASISCRSSQSLLHSNGYNYLDWYLQKPGQSPQLLIYAASSLQGGVPDRFSGSGSGTDFTLKISRVEAEDVGVYYCMQGTHWPTFGQGTKVEIKR | 932 | 0.15 | 160000 |
| Human ST2 IgG1 Antibody 36 (antibody, V domains shown, IgG1; also called ST2 Antibody 36) VH: QVQLVQSGAEVKKPGASVKVSCKASGYTFTSYGISWVRQAPGQGLEWMGWIDPNSGGTNYAQKFQGRVTMTRDTSTSTVYMELSSLRSEDTAVYYCARDDWFSGDLDYWGQGTLVTVSS VL: DIQMTQSPSSLSASVGDRVTITCRASQGIDSWLAWYQQKPGKAPKLLIYAASKLQGGVPSRFSGSGSGTDFTLTISSLQPEDFATYYCQQGYSTPITFGQGTKVDIKR | 264 | 0.14 | 510000 |
| Human ST2 IgG1 Antibody 44 (antibody, V domains shown, IgG1; also called ST2 Antibody 44) VH: EVQLLESGGGLVKPGGSLRLSCAASGFTFSSYWMSWVRQAPGKGLEWVSAISGTAINTYYADSVKGRFTISRDDSKNTLYLQMNSLKTEDTAVYYCARVRRDSSGGGAFDIWGQGTMVTVSS VL: DIQMTQSPSSLSASVGDRVTITCRASQGISNNLNWYQQKPGKAPKLLIYAASSLQTGVPSRFSGSGSGTDFTLTISSLQPEDFATYYCQQSYSTPPTFGQGTKVEIKR | 100 | 0.024 | 240000 |
| Human ST2 IgG1 Antibody 43 (antibody, V domains shown, IgG1; also called ST2 Antibody 43) VH: QVQLVQSGAQVKKPGASVKVSCKASGYTFSSYYIHWVRQAPGQGLEWMGWINPHSGGTNYGQEFQGRVTMTRDTSTSTVYMELSSLRSEDTAVYYCARDSSGMGATIGYWGQGTLVTVSS VL: DIQMTQSPSSLSASVGDRVTITCRASQSVNRRLAWYQQKPGKAPKLLIYAASTLQSGVPSRFSGSGSGTDFTLTISSLQPEDFATYYCQQGNSFPITFGQGTKVEIKR | 146 | 0.0074 | 51000 |
| Human ST2 IgG1 Antibody 37 (antibody, V domains shown, IgG1; also called ST2 Antibody 37) VH: EVQLLESGGGLVQPGGSLRLSCAASGFTFTDAWMNWVRQAPGKGLEWVSTISVSVGVTYYADSVKGRFTISRDNSKNTLYLQMNSLRAEDTAVYYCATIGSMATIRKGATDAFDIWGQGTLVTVSS VL: DIQMTQSPSSLSASVGDRVTITCRASQRINSYLNWYQQKPGKAPKLLIYAASTLQSGVPSRFSGSGSGTDFTLTISSLQPEDFATYYCQQSYSTPPTFGGGTKVEIKR | 138 | 0.085 | 620000 |
| Human ST2 IgG1 Antibody 48 (antibody, V domains shown, IgG1; also called ST2 Antibody 48) VH: EVQLLQSGGGLVQPGGSLRLSCAASEFTFSNAWMSWVRQAPGKGLEWVSTISGTSRYTYYADSVKGRFTISRDNSKNSLYLQMNSLRAEDTAVYYCARDQDGRLDYWGQGTLVTVSS VL: DIQMTQSPSSLSASVGDRVTITCRASQNIGSWLAWYQQKPGKAPKLLIYRASTLQSGVPSRFSGSGSGTDFTLTISSLQPEDFATYYCQQSYSTPYTFGQGTKVEIKR | 146 | 0.024 | 170000 |
| Human ST2 IgG1 Antibody 40 (antibody, V domains shown, IgG1; also called ST2 Antibody 40) VH: QVQLVQSGAEVKKPGASVKVSCKASGYTFTSYYIHWVRQAPGQGLEWMGIINPSADTTTYAQQFQGRVTMTRDTSTSTVYMELSSLRSEDTAVYYCARTPGNYGGNSLGYYYYYGMDVWGQGTLVTVSS VL: DIQMTQSPSSLSASVGDRVTITCRASQSVGTWLAWYQQKPGKAPKLLIYAASTLQSGVPSRFSGSGSGTDFTLTISSLQPEDFATYYCQQSYSSPLTFGPGTKVDIKR | 691 | 0.12 | 180000 |
| Human ST2 IgG1 Antibody 38 (antibody, V domains shown, IgG1; also called ST2 Antibody 38) VH: QVQLVQSGAEVKKPGSSVKVSCKASGGTFSSYAISWVRQAPGQGLEWMGTIIPMFGIADYAQKFQGRVTITADESTSTAYMELSSLRSEDTAVYYCARSSRSSSWYNWYFDLWGRGTLVTVSS VL: EIVMTQSPATLSVSPGERATLSCRASQSISSSYLAWYQQKPGQAPRLLIYGASTRATGIPARFSGSGSGTEFTLTISSLQSEDFAVYYCQQYYTTPWTFGQGTKVEIKR | 17 | 0.0053 | 310000 |
| Human ST2 IgG1 Antibody 51 (antibody, V domains shown, IgG1; also called ST2 Antibody 51) VH: QVQLVQSGAEVKKPGSSVKVSCKASGGSFSRSSISWVRQAPGQGLEWMGGIIPIFGAPVYAQDLQGRVTITADESTSTAYMELSSLRSEDTAVYYCARDHPHCSSTSCYYGMDVWGQGTTVTVSS VL: EIVMTQSPATLSVSPGERATLSCRASQTISSSYLAWYQQKPGQAPRLLIYGASTRATGIPARFSGSGSGTEFTLTISSLQSEDFAVYYCQQYGSSPLTFGGGTKVEIKR | 154 | 0.043 | 280000 |
| Human ST2 IgG1 Antibody 45 (antibody, V domains shown, IgG1; also called ST2 Antibody 45) VH: QVQLVQSGAEVKKPGSSVKVSCKASGGTFSSYAISWVRQAPGQGLEWMGGIVPIFETANYAQKFQGRVTITADESTSTAYMELSSLRSEDTAVYYCARDTPNFDYWGQGTLVTVSS VL: not shown | 22 | 0.02 | 920000 |
| Human ST2 IgG1 Antibody 65 (antibody, V domains shown, IgG1; also called ST2 Antibody 65) VH: QVQLVQSGAEVKKPGSSVKVSCKASGGTFSSYAISWVRQAPGQGLEWMGGIIPIFGTANYAQKFQGRVTITADESTSTAYMELSSLRSEDTAVYYCARDNPDFDYWGQGTLVTVSS VL: DIQMTQSPSSLSASVGDRVTITCRASQGISNYLNWYQQKPGKAPKLLIYAASSLQSGVPSRFSGSGSGTDFTLTISSLQPEDFATYYCQQSYRTPITFGQGTRLEIKR | 76 | 0.055 | 730000 |
| Human ST2 IgG1 Antibody 54 (antibody, V domains shown, IgG1; also called ST2 Antibody 54) VH: EVQLLESGGGLVQPGGSLRLSCAASGFTVSSNYMSWVRQAPGKGLEWVSAISGSGGSTYYADSVKGRFTISRDNSKNTLYLQMNSLRAEDTAVYYCARGRFGSRDVWGKGTTVTVSS VL: not shown | 81 | 0.029 | 360000 |
| Human ST2 IgG1 Antibody 50 (antibody, V domains shown, IgG1; also called ST2 Antibody 50) VH: QVQLVQSGAEVKKPGASVKVSCKASGAAFNTVAISWVRQAPGQGLEWMGWMNPNSGNTGYAQKFQGRVTMTRDTSTSTVYMELSSLRSEDTAVYYCARTPAAAGTVYFDYWGQGTLVTVSS VL: not shown | 213 | 0.075 | 350000 |
| Human ST2 IgG1 Antibody 49 (antibody, V domains shown, IgG1; also called ST2 Antibody 49) VH: QVQLVQSGAEVKKPGASVKVSCKASGGTLSSYAISWVRQAPGQGLEWMGGISPYNGKANYAEKLQGRVTMTRDTSTSTVYMELSSLRSEDTAVYYCAIRSIAAREGVYYYYMDVWGKGTTVTVSS VL: not shown | 269 | 0.085 | 320000 |
| Human ST2 IgG1 Antibody 41 (antibody, V domains shown, IgG1; also called ST2 Antibody 41) VH: QVQLVQSGAEVKKPGSSVKVSCKASGYTFTDYQMHWVRQAPGQGLEWVGVINPGGGSTTYAQTFQGRVTITADESTSTAYMELSSLRSEDTAVYYCARGGVEYSSSWDYYYYYGMDVWGQGTTVTVSS VL: not shown | 99 | 0.0024 | 24000 |
| Human ST2 IgG1 Antibody 53 (antibody, V domains shown, IgG1; also called ST2 Antibody 53) VH: QVQLVQSGAEVKKPGSSVKVSCKASGGTFSSYAISWVRQAPGQGLEWMGGIIPIFGTANYAQKFQGRVTITADESTSTAYMELSSLRSEDTAVYYCARVPADYYYYYYGMDVWGQGTTVTVSS VL: not shown | 740 | 0.12 | 160000 |
| Human ST2 IgG1 Antibody 55 (antibody, V domains shown, IgG1; also called ST2 Antibody 55) VH: QVQLVQSGAEVKKPGSSVKVSCKASGGTFSSYAISWVRQAPGQGLEWMGDIIPVIDTTNYAQKFQGRVTITADESTSTAYMELSSLRSEDTAVYYCARASGYPFGRWFDPWGQGTLVTVSS VL: not shown | 349 | 0.1 | 300000 |
| Human ST2 IgG1 Antibody 47 (antibody, V domains shown, IgG1; also called ST2 Antibody 47) VH: QVQLVQSGAEVKKPGSSVKVSCKASGYTFTNYYMHWVRQAPGQGLEWMGGIIPIFGTANYAQKFQGRVTITADESTSTAYMELSSLRSEDTAVYYCARGGYYDSSQFDIWGQGTMVTVSS VL: not shown | 413 | 0.12 | 300000 |
